Data reported in patent US20150307576A1, “FGF-10 COMPLEXES” (PERMEON BIOLOGICS, INC., priority 2012, published 2015).
Like-named read-outs stand apart in the source and are kept apart here.

Key:
[1] = test system: SKOV-3 ovarian cancer cells; test: SKOV-3 cell viability, MTS assay; type: cell-based, human; details: 100 uM, 4-hour treatment, 3 days of growth
[2] = test system: Hela cells; test: Cell penetrating activity, anti-myc flow cytometry; type: cell-based; details: 1 uM, 20 minutes
Procedure: On the day prior to the assay, 10^6 Hela cells were plated in each well of a 6-well plate and incubated in the 37° C. CO2 incubator overnight. The cells were washed once with PBS and then were replenished with 1 mL of serum-free DEMEM (A) or media containing 1 uM of the FGF10 domain construct FGF10-myc (B, C, and D) and were incubated for 20 minutes in the 37° C. CO2 incubator. The cells were then washed three times with ice-cold PBS. For (C) and (D), cells were treated with 0.25% trypsin/EDTA and washed three times with PBS. The cells in (D) were fixed for 10 minutes with 1 mL 4% formaldehyde and permealized for 5 minutes with 0.2% saponin. Then 10 uL of 0.1 mg/mL FITC labeled chicken polyclonal anti-myc tag antibody (Abcam #1394) was added to all the cells and incubated at 4° C. in the dark for 2 hours. The cells were washed three times with ice cold PBS. Cells in (A) and (B) were detached with 1 mL 10 mM EDTA. Cells were analyzed using a BD Accuri™ C6 flow cytometer.

[3] = Cellular distribution, microautoradiography (MARG); type: in vivo, mice
Procedure: To obtain specific cell-type uptake information in select organs, microautoradiography analysis was performed on selected organs collected at various time points. For microautoradiography analysis (MARG), animals were anesthetized and blood collected, as described above. Tissue samples are trimmed to be approximately 0.5 cm^2, placed into cryosectioning embedding media on a cryosectioning sample holder, and frozen in isopentane that is cooled with liquid nitrogen. Frozen samples were stored in liquid nitrogen until analysis by MARG. For analysis, tissues were cryosectioned at 5 μm under darkroom conditions, and collected onto glass slides that are pre-coated with photographic emulsion (Kodak NTB photographic emulsion). Slides were placed in sealed light-safe slide boxes and allowed to expose the photographic emulsion for 7 days before being developed, fixed and stained with hematoxylin and eosin. All slides were examined for cellular localization using light microscopy.

[4] = Stability following multiple freeze/thaw cycles (protein concentration, analytical SEC); type: physicochemical; details: two freeze/thaw cycles
Procedure: The stability of this cell penetrating domain of FGF10 was evaluated following multiple freeze/thaw cycles. To do this, protein concentration measurements and analytical size exclusion chromatography were carried out comparing protein which had undergone zero, one, or two freeze/thaw cycles. […] The study indicated about 75% stability of this protein after two freeze/thaw cycles.
Purified protein was subjected to the indicated number of freeze/thaw cycles (each freeze/thaw cycle consisted of snap-freezing the protein in liquid nitrogen, placing it at −80° C. for a minimum of two hours, and then thawing it on ice) and analyzed by size exclusion chromatography. After each thaw, the protein was subjected to 20,000×g centrifugation to remove any precipitation. The protein concentration of each sample was measured by A280, considering the extinction coefficient (24540) and molecular weight (19.57 kDa). In each case 40 μL of the protein was applied to a Superdex 75 10/300 GL column (GE Healthcare). The column running buffer was the same as the protein storage buffer (20 mM Hepes, pH 7.5, 0.5 M NaCl).

[5] = mouse, in vivo
[6] = mouse, in vivo; remark: listed apart in the source
[7] = test system: HepG2, Hela and SW626 cells; test: Internalization of p16 fusion proteins, flow cytometry; type: cell-based; details: 2 uM, overnight
Procedure: On the day prior to the assay, HepG2 (hepatoma), Hela cells, and 10^6 SW626 cells (ovarian) were plated in each well of a 6-well plate and incubated in the 37° C. CO2 incubator. The cells were washed once with PBS and then were replenished with 2 mL of growth media containing 2 uM of p16, +36GFP-p16 or FGF10-p16 proteins and were incubated overnight in the 37° C. CO2 incubator. The cells were then washed once with PBS and detached with 0.25% trypsin/EDTA. The cells were fixed for 10 minutes with 1 mL 4% formaldehyde and permeabilized for 5 minutes with 0.5 mL 0.4% saponin. Then 2.5 uL of 1 mg/mL FITC labeled chicken polyclonal anti-myc tag antibody (Abcam #1394) was added to all the cells and incubated at 4° C. in the dark for 2 hours, except for cells treated with +36GFP-p16 (GFP itself was used for detection). The cells were washed twice with ice cold PBS and were analyzed using a BD Accuri™ C6 flow cytometer.

[8] = biological target: FGFR2b receptor (Homo sapiens, UniProt P21802); details: relative to unmodified FGF10; cited from earlier work
[9] = test system: mitogenic activity; details: relative to wild-type; cited from earlier work
[10] = test system: mitogenic activity; test: Mitogenic activity of FGF10 variants; details: tetramutant vs native FGF10
[11] = trypsin, fixed and permeabilized

Chain of FGFR2b receptor (P21802 22-822 isoform P21802-3 limits assumed): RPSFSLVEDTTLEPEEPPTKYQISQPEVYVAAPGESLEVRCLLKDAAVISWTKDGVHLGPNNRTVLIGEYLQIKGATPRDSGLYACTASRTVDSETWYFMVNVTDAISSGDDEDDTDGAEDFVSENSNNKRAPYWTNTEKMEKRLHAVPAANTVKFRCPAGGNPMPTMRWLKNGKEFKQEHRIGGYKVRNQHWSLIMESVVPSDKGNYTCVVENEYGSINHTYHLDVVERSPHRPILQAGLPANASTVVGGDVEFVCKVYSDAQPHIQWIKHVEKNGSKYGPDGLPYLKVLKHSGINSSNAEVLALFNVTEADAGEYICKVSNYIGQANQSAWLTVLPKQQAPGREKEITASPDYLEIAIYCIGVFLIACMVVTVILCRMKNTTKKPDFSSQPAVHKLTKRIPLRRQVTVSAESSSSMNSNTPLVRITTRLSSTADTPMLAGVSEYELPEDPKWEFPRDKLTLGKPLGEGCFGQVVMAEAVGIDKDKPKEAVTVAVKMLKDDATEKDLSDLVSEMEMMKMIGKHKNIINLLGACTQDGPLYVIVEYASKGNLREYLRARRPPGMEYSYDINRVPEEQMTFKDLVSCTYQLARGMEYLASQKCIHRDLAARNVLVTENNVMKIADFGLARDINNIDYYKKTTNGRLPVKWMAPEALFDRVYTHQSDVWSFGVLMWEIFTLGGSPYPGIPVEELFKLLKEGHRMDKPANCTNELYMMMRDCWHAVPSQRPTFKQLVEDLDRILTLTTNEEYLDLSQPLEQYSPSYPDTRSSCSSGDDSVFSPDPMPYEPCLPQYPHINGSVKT

In the case of `CC(=O)c1c(C)c2cnc(Nc3ccc(N4CCNCC4)cn3)nc2n(C2CCCC2)c1=O` [PD-0332991], the “inhibition of cell proliferation” value [1] is reported as “complete inhibition of cell proliferation”.

In the case of FGF10, the “cells with protein present on the cell membrane” value ([2]; no trypsin) is reported as 98.8%, the “cells stained positive for FGF10 after trypsin treatment (internalized)” value [2, 11] is reported as “almost all the cells stained positive” and the “cellular distribution in kidney” value ([3]; kidney MARG) is reported as “uniformly distributed throughout the kidney”. For the same molecule, the “cellular distribution in liver” value ([3]; liver MARG) was “uniformly distributed throughout the liver tissue including in hepatocytes”, the “stability after freeze/thaw cycles” value ([4]; listed as His6-FGF10-myc) was 75% and the “stability after freeze/thaw cycles” value ([4]; listed as Hisx6-FGF10-Myc) was “about 75%”. The “levels of injected protein in liver, spleen, kidney, urinary bladder, adrenal gland, thyroid gland” value [5] was “high levels” and the “partitioning between plasma compartment and blood cell compartment” value [6] was “favor the plasma compartment”.

B1: FGF10-p16: fusion protein of FGF10 domain and full length human p16, SEQ ID NO: 6 (protein)
chain: MEQKLISEEDLGSGRHVRSYNHLQGDVRWRKLFSFTKYFLKIEKNGKVSGTKKENCPYSILEITSVEIGVVAVKAINSNYYLAMNKKGKLYGSKEFNNDCKLKERIEENGYNTYASFNWQHNGRQMYVALNGKGAPRRGQKTRRKNTSAHFLPMVVHSGHGGGGSGGGGSMEPAAGSSMEPSADWLATAAARGRVEEVRALLEAGALPNAPNSYGRRPIQVMMMGSARVAELLLLHGAEPNCADPATLTRPVHDAAREGFLDTLVVLHRAGARLDVRDAWGRLPVDLAEELGHRDVARYLRAAAGGTRGSNHARIDAAEGPSDIPDGHGHHHHHH
For B1, the “treated cells stained positive” value [7, 11] was ~30%.

B2: p16: human p16 tumor suppressor protein alone, SEQ ID NO: 5 (protein, listed as Homo sapiens)
chain: MEPAAGSSMEPSADWLATAAARGRVEEVRALLEAGALPNAPNSYGRRPIQVMMMGSARVAELLLLHGAEPNCADPATLTRPVHDAAREGFLDTLVVLHRAGARLDVRDAWGRLPVDLAEELGHRDVARYLRAAAGGTRGSNHARIDAAEGPSDIPD
For B2, the cell penetration [7] was “does not”.

B3: FGF10 E158K/K195A: FGF10 mutant with two substitutions E158K/K195A; domain variant in SEQ ID NO: 8 (protein)
chain: GRHVRSYNHLQGDVRWRKLFSFTKYFLKIEKNGKVSGTKKENCPYSILEITSVEIGVVAVKAINSNYYLAMNKKGKLYGSKEFNNDCKLKERIEKNGYNTYASFNWQHNGRQMYVALNGKGAPRRGQKTRRANTSAHFLPMVVHS
In the case of B3, the “decrease in binding to the FGFR2b receptor” value [8] is listed as “approximately 4 fold”.

B4: FGF10 R78A: FGF10 mutant with one substitution R78A; domain variant in SEQ ID NO: 9 (protein)
chain: GRHVRSYNHLQGDVAWRKLFSFTKYFLKIEKNGKVSGTKKENCPYSILEITSVEIGVVAVKAINSNYYLAMNKKGKLYGSKEFNNDCKLKERIEENGYNTYASFNWQHNGRQMYVALNGKGAPRRGQKTRRKNTSAHFLPMVVHS
For B4, the “decrease in binding to the FGFR2b receptor” value [8] is given as “approximately 4 fold” and the mitogenic activity [9] is given as “significant decrease”.

B5: tetramutant: variant of FGF10 domain with four substitutions at positions 78, 114, 158, 195, SEQ ID NO: 10 (protein)
chain: GRHVRSYNHLQGDVAWRKLFSFTKYFLKIEKNGKVSGTKKENCPYSILEIRSVEIGVVAVKAINSNYYLAMNKKGKLYGSKEFNNDCKLKERIEANGYNTYASFNWQHNGRQMYVALNGKGAPRRGQKTRRANTSAHFLPMVVHS
For B5, the mitogenic activity [10] was “reduced mitogenic activity”.
